± gives the uncertainty stated by the source.
Assay: self-splicing fitness, log relative to wild type (ln ratio); higher = more splicing; Tetrahymena group I intron in knt gene, E. coli kanamycin selection, DiMSum; sequences stand for … in CUCUCU…GGAGGGAAAAGUUAUCAGGCAUGCACCUGGUAGCUAGUCUUUAAACCAAUAGAUUGCAUCGGUUUAAAAGGCAAGACCGUCAAAUUGCGGGAAAGGGGUCAACAGCCGUUCAGUACCAAGUCUCAGGGGAAACUUUGAGAUGGCCUUGCAAAGGGUAUGGUAAUAAGCUGACGGACAUGGUCCUAACCACGCAGCCAAGUCCUAAGUCAACAGAUCUUCUGUUGAUAUGGAUGCAGUUCACAGACUAAAUGUCGGUCGGGGAAGAUGUAUUCUUCUCAUAAGAUAUAGUCGGACCUCUCCUUAAUGGGAGCUAGCGGAUGAAGUGAUGCAACACUGGAGCCGCUGGGAACUAAUUUGUAUGCGAAAGUAUAUUGAUUAGUUUUGGAGUACUCGUGGUCG
Outline: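 DiMSum derived fitness as the error-weighted combination of fold changes across replicates, kanamycin versus no kanamycin, normalised to wild type. E. coli BL21(DE3) held the library, which randomised all eight P1ex-region intron nucleotides within the knt kanamycin-resistance gene on pET-22b(+). Six replicate transformations grew overnight at 37°C or 30°C on LB agar with or without 25 μg/mL kanamycin, also containing 100 μg/mL carbenicillin, 50 μM IPTG and 0.2% rhamnose, and pooled colonies were amplicon-sequenced on an Illumina HiSeq 2500.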

CAAGAGCAAUAUUACGCCCU
self-splicing fitness (ln) (30 °C): -2.51 ± 0.49 | self-splicing fitness (ln) (37 °C): -2.72 ± 0.44

CCCUAGCAAUAUUACGGGAA
self-splicing fitness (ln) (30 °C): -3.63 ± 0.25 | self-splicing fitness (ln) (37 °C): -3.08 ± 0.19

CCUAAGCAAUAUUACGCGGA
self-splicing fitness (ln) (30 °C): -2.38 ± 0.19 | self-splicing fitness (ln) (37 °C): -3.62 ± 0.46

UCGCAGCAAUAUUACGCGGU
self-splicing fitness (ln) (30 °C): -4.16 ± 0.24 | self-splicing fitness (ln) (37 °C): -2.41 ± 0.28

AAAUAGCAAUAUUACGCAAU
self-splicing fitness (ln) (30 °C): -2.44 ± 0.13 | self-splicing fitness (ln) (37 °C): -0.689 ± 0.12

AGAUAGCAAUAUUACGUCCA
self-splicing fitness (ln) (30 °C): 0.498 ± 0.11 | self-splicing fitness (ln) (37 °C): 0.122 ± 0.18

UGUUAGCAAUAUUACGUACU
self-splicing fitness (ln) (30 °C): 0.199 ± 0.2 | self-splicing fitness (ln) (37 °C): 0.344 ± 0.18

GGCAAGCAAUAUUACGUGCA
self-splicing fitness (ln) (30 °C): -0.303 ± 0.068 | self-splicing fitness (ln) (37 °C): -0.635 ± 0.074

GGGAAGCAAUAUUACGAUUU
self-splicing fitness (ln) (30 °C): -0.13 ± 0.1 | self-splicing fitness (ln) (37 °C): -0.16 ± 0.12

UAGCAGCAAUAUUACGCAAU
self-splicing fitness (ln) (30 °C): -2.82 ± 0.13 | self-splicing fitness (ln) (37 °C): -1.68 ± 0.11

GCCCAGCAAUAUUACGCCCG
self-splicing fitness (ln) (30 °C): -4 ± 0.28 | self-splicing fitness (ln) (37 °C): -2.36 ± 0.18

UUUAAGCAAUAUUACGCUUG
self-splicing fitness (ln) (30 °C): -3.29 ± 0.23 | self-splicing fitness (ln) (37 °C): -1.4 ± 0.26

CUACAGCAAUAUUACGUAAA
self-splicing fitness (ln) (30 °C): -3.13 ± 0.16 | self-splicing fitness (ln) (37 °C): -1.92 ± 0.17

UGGAAGCAAUAUUACGCAGU
self-splicing fitness (ln) (30 °C): -2.85 ± 0.4 | self-splicing fitness (ln) (37 °C): -1.6 ± 0.18

GCACAGCAAUAUUACGGUAU
self-splicing fitness (ln) (30 °C): -0.511 ± 0.038 | self-splicing fitness (ln) (37 °C): 0.102 ± 0.059

AUUCAGCAAUAUUACGUACA
self-splicing fitness (ln) (30 °C): -0.718 ± 0.095 | self-splicing fitness (ln) (37 °C): 0.309 ± 0.11

GUCCAGCAAUAUUACGCAAU
self-splicing fitness (ln) (30 °C): -0.658 ± 0.071 | self-splicing fitness (ln) (37 °C): 0.419 ± 0.087

GGAUAGCAAUAUUACGUCAC
self-splicing fitness (ln) (30 °C): -2.88 ± 0.27 | self-splicing fitness (ln) (37 °C): -2.05 ± 0.26

ACCUAGCAAUAUUACGCGGU
self-splicing fitness (ln) (30 °C): -4.32 ± 0.46 | self-splicing fitness (ln) (37 °C): -2.48 ± 0.31

GCGCAGCAAUAUUACGCCGU
self-splicing fitness (ln) (30 °C): -1.57 ± 0.13 | self-splicing fitness (ln) (37 °C): -2.07 ± 0.27

AGACAGCAAUAUUACGAGGU
self-splicing fitness (ln) (30 °C): -3.46 ± 0.16 | self-splicing fitness (ln) (37 °C): -1.87 ± 0.13

CCUCAGCAAUAUUACGGUGU
self-splicing fitness (ln) (30 °C): -3.9 ± 0.27 | self-splicing fitness (ln) (37 °C): -1.76 ± 0.16

GCUAAGCAAUAUUACGUCGC
self-splicing fitness (ln) (30 °C): -2.46 ± 0.19 | self-splicing fitness (ln) (37 °C): -2.55 ± 0.29

AUAGAGCAAUAUUACGUUUC
self-splicing fitness (ln) (30 °C): -3.32 ± 0.22 | self-splicing fitness (ln) (37 °C): -1.46 ± 0.24

UUUUAGCAAUAUUACGGAGG
self-splicing fitness (ln) (30 °C): -2.86 ± 0.27 | self-splicing fitness (ln) (37 °C): -1.48 ± 0.22

ACGUAGCAAUAUUACGGCGU
self-splicing fitness (ln) (30 °C): -3.88 ± 0.14 | self-splicing fitness (ln) (37 °C): -2.48 ± 0.15

CUGCAGCAAUAUUACGCCUG
self-splicing fitness (ln) (30 °C): -2.21 ± 0.28 | self-splicing fitness (ln) (37 °C): -1.14 ± 0.28

UUUAAGCAAUAUUACGGGGC
self-splicing fitness (ln) (30 °C): -2.77 ± 0.3 | self-splicing fitness (ln) (37 °C): -3.55 ± 0.3

UUCCAGCAAUAUUACGGGAU
self-splicing fitness (ln) (30 °C): -3.25 ± 0.11 | self-splicing fitness (ln) (37 °C): -3.13 ± 0.19

CAGCAGCAAUAUUACGUCUU
self-splicing fitness (ln) (30 °C): -0.473 ± 0.053 | self-splicing fitness (ln) (37 °C): 0.3 ± 0.07

GGCUAGCAAUAUUACGACUG
self-splicing fitness (ln) (30 °C): -1.54 ± 0.16 | self-splicing fitness (ln) (37 °C): -0.524 ± 0.22

ACCAAGCAAUAUUACGUUGG
self-splicing fitness (ln) (30 °C): -3.54 ± 0.12 | self-splicing fitness (ln) (37 °C): -2.22 ± 0.14

AUCAAGCAAUAUUACGACCA
self-splicing fitness (ln) (30 °C): -0.886 ± 0.13 | self-splicing fitness (ln) (37 °C): 0.0541 ± 0.14

UCCCAGCAAUAUUACGAAAC
self-splicing fitness (ln) (30 °C): -3.52 ± 0.44 | self-splicing fitness (ln) (37 °C): -1.93 ± 0.46

GCCGAGCAAUAUUACGACGU
self-splicing fitness (ln) (30 °C): -0.371 ± 0.11 | self-splicing fitness (ln) (37 °C): -0.741 ± 0.11

UUAGAGCAAUAUUACGUGUA
self-splicing fitness (ln) (30 °C): -3.04 ± 0.18 | self-splicing fitness (ln) (37 °C): -1.83 ± 0.17

GAUUAGCAAUAUUACGCCUA
self-splicing fitness (ln) (30 °C): -0.405 ± 0.092 | self-splicing fitness (ln) (37 °C): 0.169 ± 0.095

UAUCAGCAAUAUUACGUCUG
self-splicing fitness (ln) (30 °C): -0.947 ± 0.076 | self-splicing fitness (ln) (37 °C): -0.205 ± 0.1

From the supplement of paper PMC7877785
